Target: human TGFßRII (antigen of the Octet experiments) (human, UniProt P37173 23-166)
Experiment: BLI (Octet)

Chain of human TGFßRII (antigen of the Octet experiments) (P37173 23-166): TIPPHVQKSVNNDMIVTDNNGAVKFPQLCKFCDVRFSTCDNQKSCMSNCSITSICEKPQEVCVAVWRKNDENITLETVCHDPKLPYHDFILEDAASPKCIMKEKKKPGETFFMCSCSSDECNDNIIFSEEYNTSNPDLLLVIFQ

Binder	Kd
H1.13 L1 XENP34469 (antibody, V domains shown) VH: QLQVQESGPGLVKPSETLSLTCTVSGGSISGSYFSWGWIRQPPGKGLEWIGSFYYGEKTYYNPSLKSRATISIDTSKSQFSLKLSSVTAADTAVYYCPRGPTMIRGVIDSWGQGTLVTVSS VL: EIVLTQSPATLSLSPGERATLSCRASQSVRSYLAWYQQKPGQAPRLLIYDASNRATGIPARFSGSGSGTDFTLTISSLEPEDFAVYYCQQRSNWPPTFGQGTKVEIK	1 nM
H1.34 L1 XENP34490 (antibody, V domains shown) VH: QLQVQESGPGLVKPSETLSLTCTVSGGSISNSYFSWHWIRQPPGKGLEWIGSFYYGEKTYYNPSLKSRATISIDTSKSQFSLKLSSVTAADTAVYYCPRGPTMIRGVIDSWGQGTLVTVSS VL: EIVLTQSPATLSLSPGERATLSCRASQSVRSYLAWYQQKPGQAPRLLIYDASNRATGIPARFSGSGSGTDFTLTISSLEPEDFAVYYCQQRSNWPPTFGQGTKVEIK	5.73 nM
H1.27 L1 XENP34483 (antibody, V domains shown) VH: QLQVQESGPGLVKPSETLSLTCTVSGGSISNSYYSWGWIRQPPGKGLEWIGSFYYGEKTYYNPSLKSRATISIDTSKSQFSLKLSSVTAADTAVYYCPRGPTMIRGVIDSWGQGTLVTVSS VL: EIVLTQSPATLSLSPGERATLSCRASQSVRSYLAWYQQKPGQAPRLLIYDASNRATGIPARFSGSGSGTDFTLTISSLEPEDFAVYYCQQRSNWPPTFGQGTKVEIK	0.809 nM
H1.36 L1 XENP34492 (antibody, V domains shown) VH: QLQVQESGPGLVKPSETLSLTCTVSGGSISNSYFSWSWIRQPPGKGLEWIGSFYYGEKTYYNPSLKSRATISIDTSKSQFSLKLSSVTAADTAVYYCPRGPTMIRGVIDSWGQGTLVTVSS VL: EIVLTQSPATLSLSPGERATLSCRASQSVRSYLAWYQQKPGQAPRLLIYDASNRATGIPARFSGSGSGTDFTLTISSLEPEDFAVYYCQQRSNWPPTFGQGTKVEIK	1.76 nM
H1.25 L1 XENP34481 (antibody, V domains shown) VH: QLQVQESGPGLVKPSETLSLTCTVSGGSISNSYHSWGWIRQPPGKGLEWIGSFYYGEKTYYNPSLKSRATISIDTSKSQFSLKLSSVTAADTAVYYCPRGPTMIRGVIDSWGQGTLVTVSS VL: EIVLTQSPATLSLSPGERATLSCRASQSVRSYLAWYQQKPGQAPRLLIYDASNRATGIPARFSGSGSGTDFTLTISSLEPEDFAVYYCQQRSNWPPTFGQGTKVEIK	0.415 nM
H1.22 L1 XENP34478 (antibody, V domains shown) VH: QLQVQESGPGLVKPSETLSLTCTVSGGSISNSDFSWGWIRQPPGKGLEWIGSFYYGEKTYYNPSLKSRATISIDTSKSQFSLKLSSVTAADTAVYYCPRGPTMIRGVIDSWGQGTLVTVSS VL: EIVLTQSPATLSLSPGERATLSCRASQSVRSYLAWYQQKPGQAPRLLIYDASNRATGIPARFSGSGSGTDFTLTISSLEPEDFAVYYCQQRSNWPPTFGQGTKVEIK	1.97 nM
H1.32 L1 XENP34488 (antibody, V domains shown) VH: QLQVQESGPGLVKPSETLSLTCTVSGGSISNSYFSMGWIRQPPGKGLEWIGSFYYGEKTYYNPSLKSRATISIDTSKSQFSLKLSSVTAADTAVYYCPRGPTMIRGVIDSWGQGTLVTVSS VL: EIVLTQSPATLSLSPGERATLSCRASQSVRSYLAWYQQKPGQAPRLLIYDASNRATGIPARFSGSGSGTDFTLTISSLEPEDFAVYYCQQRSNWPPTFGQGTKVEIK	2.47 nM
H1.30 L1 XENP34486 (antibody, V domains shown) VH: QLQVQESGPGLVKPSETLSLTCTVSGGSISNSYFYWGWIRQPPGKGLEWIGSFYYGEKTYYNPSLKSRATISIDTSKSQFSLKLSSVTAADTAVYYCPRGPTMIRGVIDSWGQGTLVTVSS VL: EIVLTQSPATLSLSPGERATLSCRASQSVRSYLAWYQQKPGQAPRLLIYDASNRATGIPARFSGSGSGTDFTLTISSLEPEDFAVYYCQQRSNWPPTFGQGTKVEIK	5.9 nM

Now those with a lower Kd, led by results:

Kd	Binder
0.374 nM	H1.12 L1 XENP34468 (antibody, V domains shown) VH: QLQVQESGPGLVKPSETLSLTCTVSGGSISESYFSWGWIRQPPGKGLEWIGSFYYGEKTYYNPSLKSRATISIDTSKSQFSLKLSSVTAADTAVYYCPRGPTMIRGVIDSWGQGTLVTVSS VL: EIVLTQSPATLSLSPGERATLSCRASQSVRSYLAWYQQKPGQAPRLLIYDASNRATGIPARFSGSGSGTDFTLTISSLEPEDFAVYYCQQRSNWPPTFGQGTKVEIK
0.325 nM	H1.1 L1 XENP28299 (antibody, V domains shown) VH: QLQVQESGPGLVKPSETLSLTCTVSGGSISNSYFSWGWIRQPPGKGLEWIGSFYYGEKTYYNPSLKSRATISIDTSKSQFSLKLSSVTAADTAVYYCPRGPTVIRGVIDSWGQGTLVTVSS VL: EIVLTQSPATLSLSPGERATLSCRASQSVRSYLAWYQQKPGQAPRLLIYDASNRATGIPARFSGSGSGTDFTLTISSLEPEDFAVYYCQQRSNWPPTFGQGTKVEIK
0.316 nM	H1.7 L1 XENP34463 (antibody, V domains shown) VH: QLQVQESGPGLVKPSETLSLTCAVSGGSISNSYFSWGWIRQPPGKGLEWIGSFYYGEKTYYNPSLKSRATISIDTSKSQFSLKLSSVTAADTAVYYCPRGPTMIRGVIDSWGQGTLVTVSS VL: EIVLTQSPATLSLSPGERATLSCRASQSVRSYLAWYQQKPGQAPRLLIYDASNRATGIPARFSGSGSGTDFTLTISSLEPEDFAVYYCQQRSNWPPTFGQGTKVEIK
0.182 nM	H1.10 L1 XENP34466 (antibody, V domains shown) VH: QLQVQESGPGLVKPSETLSLTCTVSGGSVSNSYFSWGWIRQPPGKGLEWIGSFYYGEKTYYNPSLKSRATISIDTSKSQFSLKLSSVTAADTAVYYCPRGPTMIRGVIDSWGQGTLVTVSS VL: EIVLTQSPATLSLSPGERATLSCRASQSVRSYLAWYQQKPGQAPRLLIYDASNRATGIPARFSGSGSGTDFTLTISSLEPEDFAVYYCQQRSNWPPTFGQGTKVEIK
0.128 nM	H1.4 L1 XENP34460 (antibody, V domains shown) VH: QLQLQESGPGLVKPSETLSLTCTVSGGSISNSYFSWGWIRQPPGKGLEWIGSFYYGEKTYYNPSLKSRATISIDTSKSQFSLKLSSVTAADTAVYYCPRGPTMIRGVIDSWGQGTLVTVSS VL: EIVLTQSPATLSLSPGERATLSCRASQSVRSYLAWYQQKPGQAPRLLIYDASNRATGIPARFSGSGSGTDFTLTISSLEPEDFAVYYCQQRSNWPPTFGQGTKVEIK
0.0242 nM	H1.6 L1 XENP34462 (antibody, V domains shown) VH: QLQVQESGPGLVKPSQTLSLTCTVSGGSISNSYFSWGWIRQPPGKGLEWIGSFYYGEKTYYNPSLKSRATISIDTSKSQFSLKLSSVTAADTAVYYCPRGPTMIRGVIDSWGQGTLVTVSS VL: EIVLTQSPATLSLSPGERATLSCRASQSVRSYLAWYQQKPGQAPRLLIYDASNRATGIPARFSGSGSGTDFTLTISSLEPEDFAVYYCQQRSNWPPTFGQGTKVEIK
0.0115 nM	H1.15 L1 XENP34471 (antibody, V domains shown) VH: QLQVQESGPGLVKPSETLSLTCTVSGGSISTSYFSWGWIRQPPGKGLEWIGSFYYGEKTYYNPSLKSRATISIDTSKSQFSLKLSSVTAADTAVYYCPRGPTMIRGVIDSWGQGTLVTVSS VL: EIVLTQSPATLSLSPGERATLSCRASQSVRSYLAWYQQKPGQAPRLLIYDASNRATGIPARFSGSGSGTDFTLTISSLEPEDFAVYYCQQRSNWPPTFGQGTKVEIK
0.001 nM	H1.2 L1 XENP34458 (antibody, V domains shown) VH: QVQVQESGPGLVKPSETLSLTCTVSGGSISNSYFSWGWIRQPPGKGLEWIGSFYYGEKTYYNPSLKSRATISIDTSKSQFSLKLSSVTAADTAVYYCPRGPTMIRGVIDSWGQGTLVTVSS VL: EIVLTQSPATLSLSPGERATLSCRASQSVRSYLAWYQQKPGQAPRLLIYDASNRATGIPARFSGSGSGTDFTLTISSLEPEDFAVYYCQQRSNWPPTFGQGTKVEIK

— patent US20220144956A1 (published 2022)
